From the nanobody polyreactivity screen of Harvey et al. (2022)

Experiment: yeast display, Sf9 membrane polyspecificity reagent, FACS + sequencing; frameworks hold sequencing errors
Procedure, shortened: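 In a synthetic yeast display library (Saccharomyces cerevisiae BJ5465), nanobody expression was induced with galactose for 36–48 hours. FACS gates were set low and high (top ~1%) using anti-HA fluorescence for expression and streptavidin fluorescence for binding of the Sf9 membrane reagent. Each polyreactivity label is drawn from the gate of origin.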

## QVQHVESGGGLVQAGGSLRLSCAASGSTFYHNAMGWYRQAPGKERELVAAITSGTSTYYADSVKGRFTISRDNAKNTVYLHMNSLKPEDTAVYYCAADSPWGGGYFVLYNYWGQGTQVTVSS
  polyreactivity (PSR sort gate): low polyreactivity

## QVQHVESGGGLVQAGGSLRLSCAASGSTFYRYAMGWYRQAPGNERELVAAISASGGSTYYADSVKGRFTISRDNAKNTVYLQMNSLKPEDTAVYYCNRDRRYRNDYWGQGTQVTVSS
  polyreactivity (PSR sort gate): high polyreactivity

## QVQHVESGGGLVQAGGSLRLSCAASGTIFLYNAMGWYRQAPGKERELVAAIRGSDGITFYADSVKGRFTISRDNAKNTVYLQMNSLKPEDTAVYYCAKDTYRSPRHDYGYWGQGTQVTVSS
  polyreactivity (PSR sort gate): low polyreactivity

## QVQHVESGGGLVQAGGSLRLSCAASGYTFCRYAMGWYRQAPGKERELVAAISQSGGRTYYADSVKGRFTISRDNAKNTVYFQMNSLKPDDTAVYYCATSSTQGDDYWGQGTQVTVSS
  polyreactivity (PSR sort gate): high polyreactivity

## QVQHVESGGGLVQAGGSLRLSCAASGYTFYIYAMGWYRQAHGKERELVATISSSGGGTYYADSVKGRFTISRDNAKNTVYLQMNSLTPEDTAVYYCNADGWYWQAQGYDYWGQGTQVTVSS
  polyreactivity (PSR sort gate): low polyreactivity

## QVQHVESGGGLVQAGGSLRLSCAASVIIFLWYAMGRYRQAPGKERELGAAISRSGSSTYYADSVKGRFTISRDNAKNTVYLQMNSLKPEDTAVYYCAAAYYSKRSCRFDYWGQGTQVTVSS
  polyreactivity (PSR sort gate): high polyreactivity

## QVQHVESGGGLVQAGGSLRLSCAASVSIFGWKAMGWYRKAPGKERQLVAVITCAGSTNYADSVKGRFTISRDNAKNTVYLQMNSLKPEDTAVYYCAAENLGQGGNFAYFGYYYWGQGTQVTVSS
  polyreactivity (PSR sort gate): low polyreactivity

## QVQHVESGGGLVQAGGSLRLSCAAYGRTLDVNAMGWYRQAPGKERELVAAIDWGVGTTYYADSVKGRFTISRDNAKNTVYLQMNSLKPEDTAVYYCAVEVYYSVYGYPVQYYYWGQGTQVTVSS
  polyreactivity (PSR sort gate): high polyreactivity

## QVQHVESGGGLVQAGGSLRLSCASSGRIFPTNAMGWSRQAPGKDRELVASITRSGSTYYADSVKGRFTISRDNAKNTVYLQMNSLKPEDTAVYNCAAYAYIFMDWGGYPYYLYEYEYLGQGTQVTVSS
  polyreactivity (PSR sort gate): low polyreactivity

## QVQHVESGGGLVQAGGSLRLSCDASGSIFRVYAMGWDRQAPGKERELVAAISRDGSTNYADSVKGRFTISRDNAKNTVYLQMNSLKPEDTAVYYCAAYRTYRGARMNYWGQGTQVTVSS
  polyreactivity (PSR sort gate): low polyreactivity

## QVQHVESGGGLVQAGGSLRLSGAASGRTFYKNTMGWSRQAPGKERELVAGISQRGGRTYYADSVKGRFTISRDYAKNTVYLQMNSLNPEDTAVYYCAVRSYVHGFDYWGQGTQVTVSS
  polyreactivity (PSR sort gate): high polyreactivity

## QVQHVESGGGLVQAGGSLRLSSAASGITFPVYAMGWYRPTPGKERELVAAITFSGSNTYYADSVKGRFTISRDNAKNTVYLQMNSLKPEDTAVYYCNAETGGVYFNYYYVGEYYYWGQGTQVTVSS
  polyreactivity (PSR sort gate): low polyreactivity

## QVQHVESGGGLVQAGGSLRLTCAASGRTFGVYAMGWYRQAPGKEREFVAVISWSDDSTYYADSVKGRFTISRDYAKNTVNLQMNSLKPEDTAVYYCNADDYLVYSGSHYGYWGQGTQVTVSS
  polyreactivity (PSR sort gate): low polyreactivity

## QVQHVESGGGLVQAGGSLRLTCAATGFTFEKNAMGWYRQAPGKERELVAAISRGGSTYADSVKGRFTISRDNAKNTVYLQMNSLKPEDTAVYYCAADTVYIFSSAINGEFVFWGQGTQVTVSS
  polyreactivity (PSR sort gate): low polyreactivity

## QVQHVESGGGLVQARGSLRLRCAASGFIFRANAMGWYRHAPGKERELVATISRSGGSTSYADSVKGLFTISRDNAKNTVYLQMNSLKPEDSAVYYCAARKYTLRRKSRYGYWGQGTQVTVSS
  polyreactivity (PSR sort gate): high polyreactivity

## QVQHVESGGGLVQARGSLRLSCAASGFIIWGYAMGWYRQAPGKERELVAAISSSGGSTYYADSVKGRFTISRDNAKNTVYLQMNSLKPEDTAVYYCAAVRYQAYSGDGGYWGQGTQVTVSS
  polyreactivity (PSR sort gate): low polyreactivity

## QVQHVESGGGLVQSGGSLRLSCAASGRNFKFNPMGWYRQPPGKERELVAGITWTGSTTSYADSVKGRFTISRDNATNPVYLQMNSLKPEDTEVYYCDGDKIGFWYHGFYYRGQGTQVTVSS
  polyreactivity (PSR sort gate): low polyreactivity

## QVQHVESGGRLVQAGGSLRLSCAASGSIFGRYVMGWYRQAPGKESELVAAISGSGGSTNYADSVKGRFTISRDNAKNTVYLQMNSLKPEDTAVYYCATLRWFWYTRSTRIGDYWGQGTQVTVSS
  polyreactivity (PSR sort gate): high polyreactivity

## QVQHVESGGRLVQAGGSLRLSCAASGSNWIYAMGWYRQAPGKERELVAAISVSGDRTYYADSVKGRFTISRDNAKNTVYLQMNSLKPEDTAVYYSATPPYPGRDYWGQGTEVTVSS
  polyreactivity (PSR sort gate): high polyreactivity

## QVQHVESGGRLVQAGGSLRLSCAASGSTLDVYAMGWYRQAPGKERELVAAISWSVGSTYYADSVKGRFKISRDNAKNTVYLQMNRLKPEDTAVYYCAAEPYEYAYFGYDYWGQGTQVTVSS
  polyreactivity (PSR sort gate): high polyreactivity

## QVQHVESGGSLVQAGGSLRLSCAASGRTFRRYAMGWFRHAPGKAWELVAAIRSDGATYYADSVKGRFTISRDNAKNTVYLQMNSLKPEDTAVYYCNAVYVSSVTGHVDWGQGTQVTVSS
  polyreactivity (PSR sort gate): low polyreactivity

## QVQHVESGGVLVQAGGSLRLSCAASGRTFISNVMGWYRPAPGKERELVAGITGGGNTYYADSVKGRFTISRDNAKNTVYLQMNSLKPEDTAVYYCAVRYPSYGLSYVRYGYWGQGTQLTVSS
  polyreactivity (PSR sort gate): high polyreactivity

## QVQHVESGLGLVQAGCSLRLSCAASGITFYPYTMGWYRQAPGKERELVAAIDYNGDSTYYADSVKGRFTISRDNAKNTVYLQFNSLKPEDTAVYYCAADVWTLDPDEYDYWGQGTQVTVSS
  polyreactivity (PSR sort gate): low polyreactivity

## QVQHVESGRGLVQAGGILRLTCAASGRTFEYYAMGWYRQAPGKERELVAAITYSGDSTYYADSVKGRFTISRDNAKNTFYLQMNSLKPEDTAVYYCAADWSSLKDDYWGQGTQVTVSS
  polyreactivity (PSR sort gate): low polyreactivity

## QVQHVESGRGLVQAGGSLRLICAASGRIFDLNDMGRSRQAPGKERELVAAITSAGSTYYADSVKGRFTISRDNAKNTVYLQMNSLKPEDTAVYYCNKVARGVVRPGRVGSDYWAQGTQVTVSS
  polyreactivity (PSR sort gate): high polyreactivity

## QVQHVESGRGLVQAGGSLRLSCAASGLTFSRYAMGWYRQAPGKERELVAAITRSGGSTYYADSVKGRFTISRDNEKNTVYLQMKSLKPEDSAVYYCARTFTDRYGHWYGYWGQGTQVTVSS
  polyreactivity (PSR sort gate): high polyreactivity

## QVQHVESGVGLVQAGGSLRLSCAASGSTFDRYAMRWYRQAPGKERELVAAISWSAGRTYYADSVKGRFTISRDNAKNTVYLQMNSLKPEDTAVYYCAADQIVSGTYDYYWGQGTQVTVSS
  polyreactivity (PSR sort gate): low polyreactivity

## QVQHVESGVGLVQAGGSLRLSCAASGSTFSWYTMGWYRQAPGKERELVAAISWSGGRTYYADSVKGRFTISRDNAKNTVYLQMNSLKPEDTAVYYCAAYDYWYSLGDYQFYYWGQGTQVTVSS
  polyreactivity (PSR sort gate): low polyreactivity

## QVQHVESRGGLVQAGGSLRLSCAASGLILSGYTMGWYRQAPGKERELVAAISRSGGSTYYADSVKGRFTISRDNAKNTVYLQMNSLKPEDTAVYYCAKVPIYRYGVWAMNYWGQGTLVTVSS
  polyreactivity (PSR sort gate): high polyreactivity

## QVQHVESRGGLVQAGGSLRLSCAASGRTFSRNAMGRYRQAPGKERELVATITSDGSTNYADSVKGRFTISRDNAKNTVYLQMNSLKPEDTAVYYCAAGEQSSIIGAHDYWGQGTQVTVSS
  polyreactivity (PSR sort gate): low polyreactivity

## QVQHVESRGGLVQAGGSLRLSCAASGSTFGVYAMGRYRQAPGKERELDASISSGGRTKYADSVKGRFTISRDNAKNTVYLQMNSLKPEDTAVYFCAARIRYLGVRDNDNYYCGQGTQVTVSS
  polyreactivity (PSR sort gate): low polyreactivity

## QVQHVESVGGLVQAGGSLRLSCAASGRIFNYNSMGWYRLAPVKERELVAVITSVDSTNYADSVKGRFTISRDNAKNTVYLQMNSLKQEDTAVYYCASEYYSIRYGPHSIEVYCMEYWGQGTQVTVSS
  polyreactivity (PSR sort gate): low polyreactivity

## QVQHVESVGGLVQAGGSLRLSCAASGSIFSNNVMGWYRQAPGKERELVAAITVSGGRTYYADSVKGRFTISRDNAKNSVYLQMNSLKPEDTAVYYCATGVWKYSPDGDVGDQLSGYDYWGQGTQVTVSS
  polyreactivity (PSR sort gate): low polyreactivity

## QVQHVESVGGLVQAGGSLRLSSATSGSIFITNAMGCYRQPPGKESELVAAIRDSGDRTYYADSVKGRFTISRDNGKNNVSLQMNSLKPEDTAVYYCNARCQEPLNYDYWGQGTQGTVSS
  polyreactivity (PSR sort gate): low polyreactivity

## QVQHVESVVGLVQAGVSLPLSGASSGYIFLENAMGWYRQATGKERELDAAITVSGGGTYYADSVKGRFTISRDNAKITVYLQMNSLKPEDTAVYYCAADEDNPWLWFYYWGLGTQVTVSS
  polyreactivity (PSR sort gate): low polyreactivity

## QVQHVKSGGGLVQAGGSLRLSCAASGSIFGYNTMGWYRQAPGKERELVATITYRGGSTYYADSVKGRFTISRDNAKNTVYLQMNSLKPEDTAVYYCARRVTRYPYTTWDSAGDYWGQGTQVTVSS
  polyreactivity (PSR sort gate): high polyreactivity

## QVQIEESGGGLVQAGGSIRLSCAASGRIFFLNAMGWYRQAPGKERELVAAISKSGGSTYYADSEKGRFTISRDNAKNTGFLQMNSLKPEDTAVYYCAARLHRFIRVDFGYDYWGQGTQVTVSS
  polyreactivity (PSR sort gate): high polyreactivity

## QVQIEESGGGLVQAGGSLRLSCAASGFTFTYNDMGWNRQAPGKETEFVAAISSTGGSTYYADSVKGRFTISRDNAKNTVYLQMNSLKPEDTAVYYCAAEDSWYWDAWFDYWGQGTQVTVSS
  polyreactivity (PSR sort gate): low polyreactivity

## QVQIEESGGGLVQAGGSLRLSCAASGRIFSLNVMGWSRQAPRKERELVATIRGRGTSTYYADSVKGRFTISRDNAKNTVYLQMNSLKPEDTAVYYCAASGHGAYGYWGQGTQVTVSS
  polyreactivity (PSR sort gate): low polyreactivity

## QVQIEESGGGLVQAGRSLRLSCAASGFIFGSNAMGWYRQAPGKETELVAAISRSGGSTYYADSVKGRFTISRDYAKNTVYVQMNSLKPEDTAVYYGASYLYKTRYLTEYDYWGHGTQVTVSS
  polyreactivity (PSR sort gate): high polyreactivity

## QVQIEESRGGLVQAGGSLRLSCAASGRIIDRYAMGWSRPAPRKERELVAAISSGGRTYYADSVKGRFTISRDNAKNTVYLQMHSLKPEDTAVYYCNAVAYSLSGYNSWGQGTQVTVSS
  polyreactivity (PSR sort gate): high polyreactivity

## QVQIEESRGGLVQAGGSLRLSCAASGRTFYYYAMGWYRQAPGKERELVAAISYRGGSTYYADSVKGRFTISRDNAKNTVFLQLNSLKPEDTAVYYCAKYPHPLKYPGYPSEFDYWGQGTQVSVSS
  polyreactivity (PSR sort gate): low polyreactivity

## QVQILESGGGLVQAGGSLRVSCAASGSTFSYYAMGWYRQAPGKERELVAAIRSSGGSTYYADSVKGRFTISRDNAKNTVYLQMNSLKPEDTAVYYCAARRSVGYRRYDYWGQGTQVTVSS
  polyreactivity (PSR sort gate): high polyreactivity
